Source: patent US20070258988A1 (SLOAN KETTERING INSTITUTE FOR CANCER RESEARCH, published 2007)

Experiments:
[1] = target: hMOR-1Y (human, UniProt P35372 1-388); test: cell-based or functional assay
[2] = target: hMOR-1 (exons 1-3) (human, UniProt P35372 1-388); test: cell-based or functional assay
[3] = target: hMOR-1B5 (human, UniProt P35372 1-388); test: cell-based or functional assay
[4] = target: hMOR-1B1 (human, UniProt P35372 1-388); test: cell-based or functional assay
[5] = target: hMOR-1B4 (human, UniProt P35372 1-388); test: cell-based or functional assay
[6] = target: hMOR-1 (human, UniProt P35372 1-400); test: cell-based or functional assay
[7] = target: hMOR-1B2 (human, UniProt P35372 1-388); test: cell-based or functional assay
[8] = target: hMOR-1B3 (human, UniProt P35372 1-388); test: cell-based or functional assay
[9] = target: hMOR-1A (human); test: cell-based or functional assay
[10] = target: T1, rMOR-1D (rat); test: competition against [3H]DAMGO (~1 nM), membranes of stable CHO transfectants
T1 construct: whole, on cells
Protocol: (§1) ANOVA was performed, followed by Tukey's post hoc analysis. Results are the mean ±S.E. of at least three independent determinations.

[11] = target: T2, rMOR-1 (no Exon 4) (rat, UniProt P33535 1-386, limits assumed); test: as above
T2 construct: domain: no Exon 4; also called rMOR-1 no E 4; rMOR-1 (no E4)
Protocol: as §1

[12] = target: T3, rMOR-1C1 (rat); test: as above
T3 construct: whole, on cells
Protocol: as §1

[13] = target: T4, rMOR-1A (rat); test: as above
T4 chain: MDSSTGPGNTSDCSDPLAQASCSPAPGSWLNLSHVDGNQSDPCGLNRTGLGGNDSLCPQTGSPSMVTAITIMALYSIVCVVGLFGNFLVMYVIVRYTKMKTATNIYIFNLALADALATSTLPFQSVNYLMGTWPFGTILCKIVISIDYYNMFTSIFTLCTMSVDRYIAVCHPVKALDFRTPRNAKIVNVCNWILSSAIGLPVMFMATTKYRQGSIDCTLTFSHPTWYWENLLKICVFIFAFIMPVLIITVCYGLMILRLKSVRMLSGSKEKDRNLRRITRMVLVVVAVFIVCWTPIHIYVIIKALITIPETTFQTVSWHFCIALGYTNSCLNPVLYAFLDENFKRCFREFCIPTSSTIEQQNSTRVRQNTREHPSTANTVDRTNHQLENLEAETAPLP
Protocol: as §1

[14] = target: T1, rMOR-1D; test: cell-based or functional assay
[15] = target: T2, rMOR-1 (no Exon 4); test: cell-based or functional assay
[16] = target: T3, rMOR-1C1; test: cell-based or functional assay
[17] = target: rMOR-1 (rat, UniProt P33535 1-398); test: cell-based or functional assay
[18] = target: T4, rMOR-1A; test: cell-based or functional assay

B1: β-Endorphin (peptide, UniProt P01189 237-267, looked up)
peptide: YGGFMTSEKSQTPLVTLFKNAIIKNAYKKGE
notes: also called B-Endorphin
Max Inhib (%) [1]: 90%
Max Inhib (%) [2]: 73%
Max Inhib (%) [3]: 69%
Max Inhib (%) [4]: 65%
Max Inhib (%) [5]: 69%
Max Inhib (%) [6]: 79%
Max Inhib (%) [7]: 65%
Max Inhib (%) [8]: 73%
Max Inhib (%) [9]: 73%
Ki [10]: 8.5 nM
Ki [11]: 10 nM
Ki [12]: 8.8 nM
Ki [13]: 10.5 nM
EC50 (nM), stimulation of [35S]GTPγS binding [14]: 91 nM
Max Stim (%) [14]: 165%
EC50 (nM), stimulation of [35S]GTPγS binding [15]: 90 nM
Max Stim (%) [15]: 240%
Max Stim (%) [16]: 361%
EC50 (nM), stimulation of [35S]GTPγS binding [17]: 4 nM
Max Stim (%) [17]: 246%
Max Stim (%) [18]: 177%
